Measurements from article PMC13378486, “Design and Synthesis of Peptide‐Polyester Conjugates for Cell‐Mediated Scaffold Degradation” (Advanced Healthcare Materials, 2026).

Legend:
[1] = system: Collagenase Type I (Clostridium histolyticum); test: In vitro degradation of peptide-PCL samples with collagenase; format: in vitro ADME; settings: 37°C, mean ± SD; for Mass loss in collagenase: 2 mg/mL collagenase in ZB, 21 days, washed, lyophilized, weighed, n = 4; for Cumulative Cy3 release / Cumulative Cy3 release as % of the total Cy3 in the sample: 10 mm solvent-cast disks, 2 mg/mL collagenase in 1X ZB, 5% CO2, 21 days, fluorescence ex 550/em 580 nm, n = 6
Method: (§1) Samples were pinned to silicone elastomer‐coated 24‐well plates using 0.1 mm dissection pins. The degradation behavior of the samples in the presence of collagenase was assessed by immersing pinned samples in 2 mg/mL collagenase in 1X Zymogram Developing Buffer (ZB). Solutions (1 mL) were collected and changed after the first day of incubation then after every 3–4 days. Samples were placed in an incubator (37°C, 5% CO2) for up to 21 days. Samples were also exposed to ZB as a baseline control.
(§2) Samples were weighed before and after 21 days of incubation with ZB or collagenase. After the 21‐day incubation period, samples were collected and washed three times with ultrapure water to remove residual enzymes or salts. Following washing, samples were lyophilized and subsequently weighed to determine the final mass. Percent mass loss was calculated based on the difference between initial and final masses.

[2] = format: in vitro ADME
Method: as §1, §2

multiple cell types = settings: prior peptide screening methods; cited from earlier work
From the text: We also included a scrambled version of Fast (LTRLMEKRRKV; ScrFast) in which the positions of uncharged amino acids (L, M, V) were exchanged with the charged amino acids (E, K, R). We quantified degradation of these four peptides with different mac ...

Substance	Mass loss in collagenase [1]	Cumulative Cy3 release [1] [nmol]	Cumulative Cy3 release as % of the total Cy3 in the sample [1]	Mass loss in ZB [2]	Peptide degradation behavior in prior peptide screening (multiple cell types)
CK(Cy3)KRVKRRL↓LMETC [Fast‐PCL, linear PCL‐PEG‐peptide‐PEG‐PCL conjugate of Cy3‐modified Fast with maleimide‐functionalized PCL (25 kDa) / PEG (5 kDa); tested as solvent‐cast disks with RGDS‐PCL]	22.1% ± 1.2%	20.38 ± 2.17	25.77% ± 3.70%	16.5% ± 1.6%	–
PPDKTSPEPA [Control]	–	–	–	–	negligible degradation behavior
CK(Cy3)LTRLMEKRRKVC [ScrFast‐PCL, linear PCL‐PEG‐peptide‐PEG‐PCL conjugate of Cy3‐modified ScrFast; tested as solvent‐cast disks with RGDS‐PCL]	18.9% ± 3.8%	8.70 ± 0.92	11.31% ± 1.01%	15.2% ± 7.8%	–
